From paper PMC3411838
Where a chain is given by its changes, count along the chain named. Names may count otherwise. Blank lines part the entries; values can stand above or below the binder they belong to.

Molecular target: T1, Myc-tagged CARMA1-CARD (wild type) (mouse) (UniProt Q8CIS0)
T1 sequence: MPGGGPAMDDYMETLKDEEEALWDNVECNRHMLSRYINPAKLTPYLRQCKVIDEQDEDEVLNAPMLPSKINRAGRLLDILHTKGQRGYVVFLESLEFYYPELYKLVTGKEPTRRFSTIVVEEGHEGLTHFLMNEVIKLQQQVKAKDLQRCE

NF-κB activation-dependent dual luciferase reporter in HEK293T, full-length BCL10 mutant against wild type (CARMA1 not co-transfected): < 40%
B1: full-length BCL10 E50A (pEGFP-C1) (natural protein)
chain: MEAPAPSLTEEDLTEVKKDALENLRVYLCEKIIAERHFDHLRAKKILSRADTEEISCRTSSRKRAGKLLDYLQENPRGLDTLVESIRREKTQSFLIQKITDEVLKLRNIKLEHLKGLKCSSCEPFAAGATNNLSRCNSDESNLSEKQRASTVMYHPEGESSTAPFFSMASSLNLPVLEVGRTENSSFSSATLPRPGDPGAPPLPPDLRLEEGGSCGNSSEMFLPLRSRALSRQ

NF-κB activation-dependent dual luciferase reporter in HEK293T, full-length BCL10 mutant against wild type (CARMA1 not co-transfected): < 40%
B2: full-length BCL10 E53A (pEGFP-C1) (natural protein)
chain: B1 chain with A50E, E53A

NF-κB activation-dependent dual luciferase reporter in HEK293T, full-length BCL10 mutant against wild type (CARMA1 not co-transfected): < 40%
B3: full-length BCL10 E54A (pEGFP-C1) (natural protein)
chain: B1 chain with A50E, E54A
